Reference: article PMC12776482, “Structural and Functional Analysis of GGPPS Inhibition as a Therapeutic Mechanism for Acute Myeloid Leukemia (AML)” (Research Square, 2025)

Molecular target: the molecule itself
Experiment: mass photometry; purified wild-type recombinant human GGPPS in solution; conditions not shown (Fig. S2)

B1: wild-type recombinant human geranylgeranyl pyrophosphate synthase (GGPPS) (enzyme)
chain: MEKTQETVQRILLEPYKYLLQLPGKQVRTKLSQAFNHWLKVPEDKLQIIIEVTEMLHNASLLIDDIEDNSKLRRGFPVAHSIYGIPSVINSANYVYFLGLEKVLTLDHPDAVKLFTRQLLELHQGQGLDIYWRDNYTCPTEEEYKAMVLQKTGGLFGLAVGLMQLFSDYKEDLKPLLNTLGLFFQIRDDYANLHSKEYSENKSFCEDLTEGKFSFPTIHAIWSRPESTQVQNILRQRTENIDIKKYCVHYLEDVGSFEYTRNTLKELEAKAYKQIDARGGNPELVALVKHLSKMFKEENE
notes: human geranylgeranyl pyrophosphate synthase (GGPPS, GGPS1), wild type; His6 tag removed with TEV protease; also called GGPP synthase; hGGPPS; source: E. coli (BL21 DE3), purified (Ni-NTA, TEV cleavage, second Ni-NTA, Superdex 200); not shown: His6, N-terminal, cleaved
Q: Which “stoichiometry N” value does the source give for B1 here?
A: 6
